Target: SpyCatcher003
Experiment: gel shift assay of isopeptide ligation

Row | Substance | fold change of ligation rate against Oxo (slower) [fold] | fold change of ligation rate against Oxo (faster) [fold] | fold change of ligation rate against Val^S3 (slower) [fold]
1 | SpyTag003 Ala^S11 thioamide variant (peptide) | 38 | – | –
2 | SpyTag003 Ile^S6 thioamide variant (peptide) | 5.4 | – | –
3 | SpyTag003 Met^S8 thioamide variant (peptide) | > 2000 | – | –
4 | SpyTag003 Val^S3 thioamide variant (peptide) | – | 1.8 | –
5 | SpyTag003 Val^S3-Pro^S4 dual thioamide peptide | 1.2 | – | 2
6 | SpyTag003 Val^S7 thioamide variant (peptide) | – | 1.4 | –
7 | SpyTag003 Val^S9 thioamide variant (peptide) | 1.6 | – | –

Source: publication doi:10.1101/2024.10.10.617615
